Measured values published in the supplement of paper PMC10724198.
± gives the standard deviation of the averaged measurements.

The sequences below were run on Saccharomyces cerevisiae (assay: protein stability index of tFT-peptide fusion (C-terminal peptide) (PSI (0-1 scale)); higher = more stable (slower turnover)). Conditions: genetic background: wild type; temperature: 30 C.
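Further: PSI is a weighted mean of sequencing reads over stability bins, variants kept only with over 10 reads, mCherry proximal and sfGFP distal, peptide attached via GGGS linker.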

LLPPRPSSSPPS and LLPSLFLLPPSA are within error of each other in protein stability index: 0.704 ± 0.026 for the first, 0.743 ± 0.094 for the second.

LLPSPRSSPPPS and LLQRFTTVPTLL are within error of each other in protein stability index: 0.675 ± 0.091 for the first, 0.616 ± 0.083 for the second.

LLRLTGRRHVGG and LLRPLSPIDVLR are within error of each other in protein stability index: 0.748 ± 0.2 for the first, 0.702 ± 0.069 for the second.

LLRPYYHILVPL and LLRRFSLLPPPL are within error of each other in protein stability index: 0.695 ± 0.0024 for the first, 0.667 ± 0.035 for the second.

LLRSCLTLFARR and LLRVPPGPIFPS are within error of each other in protein stability index: 0.668 ± 0.021 for the first, 0.661 ± 0.064 for the second.

Going from LLSCLDILFFFI to LLSGRDAACRGG, the protein stability index rises from 0.609 ± 0.016 to 0.663 ± 0.027.

LLSLLQLPASAS and LLSLSCLPLHFR are within error of each other in protein stability index: 0.605 ± 0.03 for the first, 0.574 ± 0.088 for the second.

LLSPAPPLPPAP and LLVVSIGSCFFG are within error of each other in protein stability index: 0.666 ± 0.057 for the first, 0.572 ± 0.065 for the second.

LMGGMIRDMVWG and LMRGLYAIPGKF are within error of each other in protein stability index: 0.643 ± 0.13 for the first, 0.776 ± 0.019 for the second.

LMVGFRSFNVKC and LNLRTFATFFRY are within error of each other in protein stability index: 0.618 ± 0.051 for the first, 0.635 ± 0.077 for the second.

Compared with LNLTAPPPPHLV, LNLWVVYRLLGV is lower in protein stability index: 0.6721 ± 0.0066 for the first, 0.599 ± 0.038 for the second.

Going from LNPPFICFAWLY to LPAAPPPPPLPP, the protein stability index rises from 0.598 ± 0.076 to 0.742 ± 0.042.

LPASPSIAPPPT and LPATLPPPPAPP are within error of each other in protein stability index: 0.636 ± 0.06 for the first, 0.705 ± 0.036 for the second.

Compared with LPAWSYPSGWLL, LPCCYVWFFLSL is lower in protein stability index: 0.718 ± 0.044 for the first, 0.499 ± 0.023 for the second.

Compared with LPCRRPTPPFPQ, LPCSTLPWAPLT is lower in protein stability index: 0.752 ± 0.024 for the first, 0.565 ± 0.023 for the second.

LPFLVSPPLFRT and LPFPLGDSRGSC are within error of each other in protein stability index: 0.664 ± 0.063 for the first, 0.697 ± 0.011 for the second.

LPFPPPIIATPP and LPFPSPSPPFPF are within error of each other in protein stability index: 0.665 ± 0.13 for the first, 0.63 ± 0.094 for the second.

LPGAEASRCTST and LPGKVGNAPFDQ are within error of each other in protein stability index: 0.657 ± 0.041 for the first, 0.6913 ± 0.0062 for the second.

LPHPPPLPTPPP and LPHVALFLLPAL are within error of each other in protein stability index: 0.739 ± 0.13 for the first, 0.638 ± 0.0064 for the second.

LPLLALLDVPLP and LPLPHPRLPPRP are within error of each other in protein stability index: 0.683 ± 0.018 for the first, 0.684 ± 0.049 for the second.

First: LPLPTSPHPRPA
Second: LPLRAHPTISFP
The protein stability index of the first is lower: 0.61 ± 0.046 for the first, 0.751 ± 0.05 for the second.

LPNTWLTSLIHQ and LPPAPPLPPPPT are within error of each other in protein stability index: 0.701 ± 0.33 for the first, 0.683 ± 0.044 for the second.

LPPARRHPSVYR and LPPHPPPCPPLL are within error of each other in protein stability index: 0.669 ± 0.064 for the first, 0.733 ± 0.088 for the second.

First: LPPLAPASHHLC
Second: LPPLAYALLPPL
The protein stability index of the first is lower: 0.493 ± 0.016 for the first, 0.571 ± 0.028 for the second.

LPPLPLPPAPSA and LPPLPPLPPPPH are within error of each other in protein stability index: 0.621 ± 0.042 for the first, 0.686 ± 0.076 for the second.

LPPLPPPPLLFP and LPPPAPSPAPPH are within error of each other in protein stability index: 0.674 ± 0.002 for the first, 0.593 ± 0.12 for the second.

LPPPGSSPRATS and LPPPLPPLLPLP are within error of each other in protein stability index: 0.718 ± 0.06 for the first, 0.675 ± 0.014 for the second.

LPPPLPVRSPLF and LPPPPIAPPLTP are within error of each other in protein stability index: 0.68 ± 0.012 for the first, 0.689 ± 0.063 for the second.

LPPPPRPPLPSP and LPPPSPSPLFPP are within error of each other in protein stability index: 0.737 ± 0.068 for the first, 0.669 ± 0.052 for the second.

Going from LPPPYSHTPPPR to LPPQRPSQYLLH, the protein stability index rises from 0.581 ± 0.031 to 0.786 ± 0.11.

First: LPPRPRPLPPSP
Second: LPPRSRHPSPYA
The protein stability index of the first is lower: 0.589 ± 0.0077 for the first, 0.654 ± 0.016 for the second.

Going from LPPSPHPPLPHL to LPPSPLALVSSS, the protein stability index falls from 0.886 ± 0.011 to 0.637 ± 0.021.

LPPTPPLPRSLP and LPPTSPPPSSPP are within error of each other in protein stability index: 0.716 ± 0.066 for the first, 0.7007 ± 0.0041 for the second.

LPRAAISRKFAT and LPRLPVSPLPLP are within error of each other in protein stability index: 0.63 ± 0.037 for the first, 0.681 ± 0.057 for the second.

Going from LPRPLTIKQVAG to LPRPPPTSSTPL, the protein stability index rises from 0.56 ± 0.021 to 0.784 ± 0.16.

LPRRDPGPSKEP and LPSGVPPPPPLP are within error of each other in protein stability index: 0.66644 ± 0.00038 for the first, 0.695 ± 0.063 for the second.

Going from LPSLPPRTSPPS to LPSLRFLFPLVP, the protein stability index falls from 0.761 ± 0.027 to 0.671 ± 0.036.

LPSLSPPPSLPL and LPSPLPPPAWTP are within error of each other in protein stability index: 0.763 ± 0.042 for the first, 0.735 ± 0.029 for the second.

Going from LPSPLPPPPPAH to LPSPPPPRSLLP, the protein stability index falls from 0.707 ± 0.0082 to 0.6657 ± 0.0016.

LPSPPPRPPHHR and LPSPTTPRSPPP are within error of each other in protein stability index: 0.672 ± 0.025 for the first, 0.729 ± 0.1 for the second.

Going from LPSPYPMPPPLP to LPSSLFLCSLFC, the protein stability index falls from 0.736 ± 0.018 to 0.655 ± 0.026.

LPVLPPLSPSPF and LPVPLAAFTTLH are within error of each other in protein stability index: 0.665 ± 0.011 for the first, 0.711 ± 0.084 for the second.

Compared with LPVRLPVSGSSS, LQAALVFPRSSL is lower in protein stability index: 0.8296 ± 0.0057 for the first, 0.7225 ± 0.00052 for the second.

LQPLPPYHSIQL and LQRPDHPTPTPP are within error of each other in protein stability index: 0.703 ± 0.012 for the first, 0.712 ± 0.017 for the second.

LQSLRSEVIHSL and LQTLDVFTTMKL are within error of each other in protein stability index: 0.651 ± 0.095 for the first, 0.58 ± 0.045 for the second.

LRAWWTPRRGRW and LRCLFAWVCECG are within error of each other in protein stability index: 0.769 ± 0.052 for the first, 0.635 ± 0.083 for the second.

LRCLLAHIAGRG and LRCSKRNKSMGQ are within error of each other in protein stability index: 0.67065 ± 0.00044 for the first, 0.648 ± 0.048 for the second.

LRECRSWGGAAG and LRFRTNYFFSRV are within error of each other in protein stability index: 0.653 ± 0.029 for the first, 0.665 ± 0.063 for the second.

LRGFGLGLRFFF and LRGGGKRREVMG are within error of each other in protein stability index: 0.65 ± 0.013 for the first, 0.702 ± 0.099 for the second.

Going from LRGSCFSLWLVF to LRGVGAGPEDVG, the protein stability index rises from 0.526 ± 0.031 to 0.694 ± 0.017.

LRHVARCARGGA and LRKCVKAECKSQ are within error of each other in protein stability index: 0.647 ± 0.095 for the first, 0.684 ± 0.037 for the second.

LRLCSLSLPSLP and LRLGRDLMGEGV are within error of each other in protein stability index: 0.704 ± 0.026 for the first, 0.661 ± 0.072 for the second.

First: LRLLLLVLPTCF
Second: LRPILLSWFRKS
The protein stability index of the first is lower: 0.527 ± 0.02 for the first, 0.61 ± 0.039 for the second.

First: LRPLPPPAPCKF
Second: LRPLPSPPPSLH
The protein stability index of the first is higher: 0.774 ± 0.04 for the first, 0.603 ± 0.0066 for the second.

LRPRRCWNQWDM and LRQALGRSEEPQ are within error of each other in protein stability index: 0.675 ± 0.048 for the first, 0.6728 ± 0.0065 for the second.

Going from LRRKTIEVSGLA to LRRLSTGTLSIL, the protein stability index rises from 0.573 ± 0.026 to 0.724 ± 0.057.

LRRMQGTGCPLP and LRSARPALLCTP are within error of each other in protein stability index: 0.643 ± 0.035 for the first, 0.678 ± 0.037 for the second.

LRSGSLVSLPPL and LRTPNIYLSFSP are within error of each other in protein stability index: 0.747 ± 0.1 for the first, 0.666 ± 0.1 for the second.

Going from LRTVSPPSASPP to LRVVCVVGQRSL, the protein stability index falls from 0.689 ± 0.014 to 0.554 ± 0.0094.

LSDSSDSTLGAI and LSFGPISGTPFR are within error of each other in protein stability index: 0.667 ± 0.029 for the first, 0.661 ± 0.048 for the second.

LSGLFMAARIFI and LSGNLLLSSLLQ are within error of each other in protein stability index: 0.627 ± 0.06 for the first, 0.654 ± 0.049 for the second.

LSGVRFDSVFEH and LSISGSVHILKD are within error of each other in protein stability index: 0.729 ± 0.016 for the first, 0.733 ± 0.024 for the second.

LSLASTGVDSGG and LSLHCIYQQIFR are within error of each other in protein stability index: 0.743 ± 0.03 for the first, 0.822 ± 0.12 for the second.

LSLPSLLLRLSL and LSPCSDFSTFDA are within error of each other in protein stability index: 0.644 ± 0.023 for the first, 0.771 ± 0.12 for the second.

LSPLPRLQPASP and LSPLTPAPLPPP are within error of each other in protein stability index: 0.655 ± 0.071 for the first, 0.6675 ± 0.0058 for the second.

Going from LSPPPPRPTLQF to LSPSPTSHSRLL, the protein stability index falls from 0.731 ± 0.0092 to 0.589 ± 0.024.

LSPSSSLTYLSF and LSPVRRAPCPLG are within error of each other in protein stability index: 0.724 ± 0.07 for the first, 0.6905 ± 0.0019 for the second.

LSRLPPTLPRTP and LSRPPASPPHPP are within error of each other in protein stability index: 0.699 ± 0.18 for the first, 0.71468 ± 0.00055 for the second.

LSRTPLPLPPPS and LSSLLPFPPLPC are within error of each other in protein stability index: 0.705 ± 0.019 for the first, 0.685 ± 0.082 for the second.

Compared with LSSRSDVLTYFV, LSTCHSPSLPAT is higher in protein stability index: 0.639 ± 0.022 for the first, 0.739 ± 0.049 for the second.

LSTHAPPTRLRL and LSTPPLPPPPPP are within error of each other in protein stability index: 0.677 ± 0.016 for the first, 0.689 ± 0.058 for the second.

First: LSVAFFILRVPL
Second: LSVGLVPFRWRV
The protein stability index of the first is lower: 0.573 ± 0.071 for the first, 0.6584 ± 0.0017 for the second.

Compared with LSVNAGWLQLCA, LSVPVGIRPGRC is higher in protein stability index: 0.561 ± 0.018 for the first, 0.702 ± 0.018 for the second.

LSWDVWWYFLSV and LTLPPRPPSPPS are within error of each other in protein stability index: 0.594 ± 0.0063 for the first, 0.675 ± 0.08 for the second.

LTSATSSGPPHP and LTVVNFFPLGSP are within error of each other in protein stability index: 0.7232 ± 0.0029 for the first, 0.67 ± 0.064 for the second.

Compared with LVDKGSADVLDD, LVFLRDFFSLFS is higher in protein stability index: 0.632 ± 0.048 for the first, 0.71 ± 0.017 for the second.

Going from LVFSSVVISCDI to LVFVPTLFPPPG, the protein stability index rises from 0.528 ± 0.0092 to 0.662 ± 0.053.

LVFYSSLPNFSR and LVGRRGVVGIVP are within error of each other in protein stability index: 0.6815 ± 0.0024 for the first, 0.63 ± 0.075 for the second.

LVGWVCRERELG and LVHHPCNTPRVP are within error of each other in protein stability index: 0.718 ± 0.06 for the first, 0.749 ± 0.018 for the second.

Compared with LVIKNVWHESTY, LVKLGSTLSGVG is lower in protein stability index: 0.709 ± 0.054 for the first, 0.582 ± 0.026 for the second.
